# Measurements as given in patent publication US20180244760A1.
# Key:
# [1] = target: Clostridium difficile toxin A (TcdA) (Clostridium difficile) (UniProt P16154); test: ELISA, plate coated with 1 ug/ml TcdA
# [2] = target: Clostridium difficile toxin A (TcdA) (Clostridium difficile) (UniProt P16154); test: cell-based or functional assay
# Sequence of Clostridium difficile toxin A (TcdA) (Clostridium difficile) (P16154 whole entry): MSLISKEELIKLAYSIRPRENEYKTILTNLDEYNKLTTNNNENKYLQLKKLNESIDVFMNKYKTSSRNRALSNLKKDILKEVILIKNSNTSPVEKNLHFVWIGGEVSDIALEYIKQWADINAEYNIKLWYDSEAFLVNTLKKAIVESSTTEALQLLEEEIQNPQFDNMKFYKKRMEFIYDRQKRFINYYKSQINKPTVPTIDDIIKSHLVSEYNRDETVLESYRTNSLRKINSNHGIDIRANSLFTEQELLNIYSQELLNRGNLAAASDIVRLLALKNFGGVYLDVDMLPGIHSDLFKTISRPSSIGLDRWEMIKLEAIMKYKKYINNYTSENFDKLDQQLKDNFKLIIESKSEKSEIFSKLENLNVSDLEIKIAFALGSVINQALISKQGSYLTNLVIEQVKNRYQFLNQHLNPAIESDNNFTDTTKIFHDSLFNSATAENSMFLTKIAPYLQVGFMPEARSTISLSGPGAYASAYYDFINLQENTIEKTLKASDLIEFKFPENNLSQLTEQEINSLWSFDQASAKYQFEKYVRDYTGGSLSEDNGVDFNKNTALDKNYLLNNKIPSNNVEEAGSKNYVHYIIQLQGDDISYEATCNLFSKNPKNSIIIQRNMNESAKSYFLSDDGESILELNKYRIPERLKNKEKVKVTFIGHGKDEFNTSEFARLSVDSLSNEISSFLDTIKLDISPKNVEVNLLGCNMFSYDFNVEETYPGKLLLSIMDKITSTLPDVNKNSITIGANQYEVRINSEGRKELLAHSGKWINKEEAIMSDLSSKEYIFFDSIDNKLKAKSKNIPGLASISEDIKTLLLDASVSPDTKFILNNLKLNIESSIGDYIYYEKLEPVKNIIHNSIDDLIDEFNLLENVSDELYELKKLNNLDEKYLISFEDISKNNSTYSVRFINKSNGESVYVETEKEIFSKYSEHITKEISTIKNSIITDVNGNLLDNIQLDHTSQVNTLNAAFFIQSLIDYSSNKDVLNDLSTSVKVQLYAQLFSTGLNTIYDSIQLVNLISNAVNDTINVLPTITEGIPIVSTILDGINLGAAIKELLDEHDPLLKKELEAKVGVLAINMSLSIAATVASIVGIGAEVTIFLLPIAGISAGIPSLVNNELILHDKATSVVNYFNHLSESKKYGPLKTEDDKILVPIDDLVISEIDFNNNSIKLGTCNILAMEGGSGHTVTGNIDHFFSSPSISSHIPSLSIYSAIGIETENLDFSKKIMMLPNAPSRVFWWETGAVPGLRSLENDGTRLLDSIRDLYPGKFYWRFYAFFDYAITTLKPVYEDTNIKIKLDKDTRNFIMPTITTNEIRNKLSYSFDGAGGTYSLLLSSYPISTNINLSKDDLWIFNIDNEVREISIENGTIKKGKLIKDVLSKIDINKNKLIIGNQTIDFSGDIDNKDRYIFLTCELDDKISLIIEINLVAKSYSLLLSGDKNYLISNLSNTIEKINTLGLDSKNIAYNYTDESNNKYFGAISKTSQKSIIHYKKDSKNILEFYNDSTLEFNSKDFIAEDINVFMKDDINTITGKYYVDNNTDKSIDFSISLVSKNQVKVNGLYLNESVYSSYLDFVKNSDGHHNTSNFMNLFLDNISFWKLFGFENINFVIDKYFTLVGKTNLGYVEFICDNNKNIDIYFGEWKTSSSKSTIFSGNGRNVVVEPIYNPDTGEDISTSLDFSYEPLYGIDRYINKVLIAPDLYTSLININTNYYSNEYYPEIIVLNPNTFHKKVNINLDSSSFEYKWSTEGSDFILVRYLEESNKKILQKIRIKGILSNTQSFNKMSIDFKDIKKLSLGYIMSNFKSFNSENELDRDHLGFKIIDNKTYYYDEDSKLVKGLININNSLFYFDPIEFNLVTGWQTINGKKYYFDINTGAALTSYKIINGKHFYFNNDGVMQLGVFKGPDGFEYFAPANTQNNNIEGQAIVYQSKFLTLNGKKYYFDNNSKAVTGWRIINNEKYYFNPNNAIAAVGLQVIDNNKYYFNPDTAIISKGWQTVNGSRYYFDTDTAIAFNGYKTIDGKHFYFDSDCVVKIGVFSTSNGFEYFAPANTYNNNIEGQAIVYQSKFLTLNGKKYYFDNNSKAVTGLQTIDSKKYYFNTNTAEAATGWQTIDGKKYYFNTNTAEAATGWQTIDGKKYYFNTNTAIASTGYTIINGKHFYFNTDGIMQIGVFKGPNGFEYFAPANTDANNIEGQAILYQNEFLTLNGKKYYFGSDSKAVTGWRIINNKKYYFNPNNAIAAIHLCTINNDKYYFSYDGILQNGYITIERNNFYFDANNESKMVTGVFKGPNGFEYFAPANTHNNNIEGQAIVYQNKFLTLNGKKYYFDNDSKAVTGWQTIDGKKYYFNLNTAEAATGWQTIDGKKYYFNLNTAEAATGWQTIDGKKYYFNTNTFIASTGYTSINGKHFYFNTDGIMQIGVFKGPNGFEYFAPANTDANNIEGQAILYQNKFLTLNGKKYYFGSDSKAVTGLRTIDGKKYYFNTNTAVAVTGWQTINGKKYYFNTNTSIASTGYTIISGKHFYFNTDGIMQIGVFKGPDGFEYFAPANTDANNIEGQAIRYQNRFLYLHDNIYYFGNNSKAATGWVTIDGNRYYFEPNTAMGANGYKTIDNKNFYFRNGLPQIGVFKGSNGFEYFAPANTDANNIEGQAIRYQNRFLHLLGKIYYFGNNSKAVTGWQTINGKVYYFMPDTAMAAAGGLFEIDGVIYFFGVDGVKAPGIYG
substance,measurement,setting,value
Merck anti-TcdA human monoclonal antibody,EC50 (read off the curve),[1],2 ng/mL
same,minimal dose of antibody protecting Vero cells from TcdA-induced cell rounding,[2],> 10 nM
